The source of these data is article PMC7033311, “The Eaf3 chromodomain acts as a pH sensor for gene expression by altering its binding affinity for histone methylated-lysine residues” (Bioscience Reports, 2020).

The target of one data set is Eaf3 CD W88A (Saccharomyces cerevisiae, UniProt Q12432, W88A). Format: binding. The conditions noted are these: pH 6.8.
The target in the next data set is Eaf3 CD Y23A (Saccharomyces cerevisiae, UniProt Q12432, Y23A). Type of data set: binding. To be noted: pH 6.8.
Chain of Eaf3 CD Y23A (Q12432 1-120 Y23A limits assumed): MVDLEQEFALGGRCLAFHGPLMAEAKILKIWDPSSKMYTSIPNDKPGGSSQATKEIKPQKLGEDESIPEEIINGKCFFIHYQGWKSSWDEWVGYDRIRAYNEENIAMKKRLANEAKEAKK
A further data set addresses Eaf3 CD W84A (Saccharomyces cerevisiae, UniProt Q12432, W84A). Type of data set: binding. To be noted: pH 6.8.
The target in another data set is Eaf3 CD Y81A (Saccharomyces cerevisiae, UniProt Q12432, Y81A). Type of data set: binding. The conditions noted are these: pH 6.8.
Chain of Eaf3 CD Y81A (Q12432 1-120 Y81A limits assumed): as the sequence (Q12432 1-120 Y23A limits assumed) above, with A23Y, Y81A counted along it
Data set [1] deals with Histone H3 peptide trimethylated at Lys36 (H3K36me3) none (post-translational modification: K36me3) (UniProt P61830). In words: NMR titration (1H,15N-HSQC chemical shift perturbation), Bruker AVANCE-600. The conditions noted are these: 25°C, 20 mM NaCl (given for pH 6.8 and in the pH 8.5 Tris buffer; the wording leaves open whether NaCl was also present at pH 5.2, 6.0 and 7.5), pH 5.2: 10 mM sodium acetate, pH 6.0 and 7.5: 10 mM potassium phosphate, pH 6.8: 10 mM potassium phosphate, pH 8.5: 10 m.

A further data set addresses Eaf3 CD (wild-type) (Saccharomyces cerevisiae, UniProt Q12432). The data set is described as follows: biochemical. Type of data set: binding.
For data set [2], the target named is Histone H3 peptide trimethylated at Lys36 (H3K36me3) none (post-translational modification: K36me3) (UniProt P61830). The data set is described as follows: NMR pH titration of the free protein (series of 1H,15N-HSQC spectra; His side-chain Hδ2, Hε1, Nδ1, Nε2 and main-chain N shifts). To be noted: pH 5.2-10.5; 25°C.
The target in data set [3] is T1, Eaf3 chromodomain (residues 1-120), wild type (Saccharomyces cerevisiae).
T1 construct: Eaf3, Saccharomyces cerevisiae (budding yeast), chromodomain, residues 1-120; 15N-labelled for the NMR titrations; also called Eaf3 CD; WT; source: E. coli BL21(DE3)pLysS, purified (Ni-NTA, thrombin, Ni-NTA, Superdex75)
T1 chain: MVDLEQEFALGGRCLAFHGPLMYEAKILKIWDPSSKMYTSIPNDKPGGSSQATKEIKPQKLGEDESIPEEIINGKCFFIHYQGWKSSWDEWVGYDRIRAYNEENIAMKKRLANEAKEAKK
In words: NMR titration; 0.1 mM 15N-labeled Eaf3 CD titrated with unlabeled histone H3 peptide; 1H,15N-HSQC; 10 mM potassium phosphate pH 6.8, 20 mM NaCl, 5 mM deuterated DTT, 25°C; Kd from the titration curves of Ala25. The conditions noted are these: both partners purified.

Data set [4] concerns the target T2, Eaf3 chromodomain (Eaf3 CD, residues 1-120), wild type (S. cerevisiae, UniProt Q12432 1-120).
T2 construct: Eaf3 chromodomain (CD), budding yeast (S. cerevisiae), residues 1-120; 15N-labelled for the NMR experiments; expressed from pET15b; also called WT Eaf3 CD; source: E. coli BL21(DE3)pLysS, purified (Ni-NTA, thrombin, Ni-NTA flow-through, Superdex75)
T2 sequence (looked up): T1 chain
In words: NMR titration; 0.1 mM 15N-labelled WT or mutant Eaf3 CD titrated with unlabelled histone H3 peptide up to 1:88; 10 mM potassium phosphate pH 6.8, 20 mM NaCl, 5 mM DTT, 25°C; Kd by nonlinear fit of chemical shift change. To be noted: both partners purified.

In data set [5] the target is His18 (UniProt position 18, …). In words: NMR. The conditions noted are these: 25 °C, free (no histone peptide), folded.
A short description of data set [6]: NMR pH titration of histidine residues (pKa). Type of data set: physicochemical. On the procedure: A series of ^1H,^15N-HSQC spectra for 0.1–1.1 mM ^15N-labeled Eaf3 CD were recorded at different pH ranging from 5.2 to 10.5 at 25°C on a Bruker AVANCE-600 spectrometer equipped with a cryogenic probe. The observed chemical shift (δobs) was plotted as a function of pH. pKa values were calculated by a nonlinear least-squares fit of the pH titration curves using the following equation, δobs=[δl+δh×10^(pH-pKa)]/[1+10^(pH-pKa)], where δl and δh represent the chemical shift values at extreme low and high pH, respectively.

Data set [7] concerns the molecule itself. In words: SEC; size exclusion chromatograms of wild-type and mutant Eaf3 CD (Superdex75 in the purification); peaks marked D: dimer, M: monomer. (Size exclusion chromatography separates by hydrodynamic size, large species first.)

One may read the Kd as the free concentration of one partner at which half of the binding sites on the other are occupied at equilibrium, for simple one-to-one binding. For orientation: pKa means the negative logarithm of the acid dissociation constant. High values mean a group that holds its proton tightly, low ones a group that gives up its proton readily. One may read the stoichiometry N as the number of molecules, sites or subunits per partner or assembly.

Positions count from the first letter of the chain named. Read-outs that look alike come from different tables or passages of the source. Where no end group is shown, it is not given here. [ ]: non-standard residue; d: D form. me2 = dimethylated (di-methylated lysine); Lys(Me3) = C[N+](C)(C)CCCC[C@H](N)C(=O)O; pT = C[C@@H](OP(=O)(O)O)[C@H](N)C(=O)O; Lys(Me2) = CN(C)CCCC[C@H](N)C(=O)O Some results are limits rather than exact numbers.

Chain of Eaf3 CD W84A (Q12432 1-120 W84A limits assumed): as the sequence (Q12432 1-120 Y23A limits assumed) above, with A23Y, W84A counted along it
Chain of Eaf3 CD W88A (Q12432 1-120 W88A limits assumed): as the sequence (Q12432 1-120 Y23A limits assumed) above, with A23Y, W88A counted along it

On to `C[C@H](N)C(=O)N[C@@H](CCCNC(=N)N)C(=O)N[C@H](C(=O)N[C@@H](CCCC[N+](C)(C)C)C(=O)N[C@@H](CCC(N)=O)C(=O)N[C@H](C(=O)N[C@@H](C)C(=O)N[C@@H](CCCNC(=N)N)C(=O)N[C@@H](CCCCN)C(=O)N[C@@H](CO)C(=O)N[C@H](C(=O)NCC(=O)NCC(=O)N[C@@H](CCCCN)C(=O)N[C@@H](C)C(=O)N1CCC[C@H]1C(=O)N[C@@H](CCCNC(=N)N)C(=O)N[C@@H](Cc1ccc(O)cc1)C(=O)O)[C@@H](C)O)[C@@H](C)O)[C@@H](C)O` [H3K4me3], for which the “Dissociation constant (Kd)” value at Eaf3 CD W88A, at Eaf3 CD Y23A, on Eaf3 CD W84A and at Eaf3 CD Y81A was “N.B” throughout.

As for Eaf3 chromodomain H18D H18D, the “fold change of binding (H18D relative to WT)” value in data set [1] (pH 6.8) is recorded as 11.7-fold increase relative to WT at pH 6.8.

For the molecule `CN(C)C(N)=NCCC[C@H](N)C(=O)O` [Rame2, asymmetrically di-methylated arginine], the Kd at Eaf3 CD (wild-type) (pH 6.8, read-out: Dissociation constant (Kd)) was above 10 mM.

At Eaf3 CD (wild-type), `C[N+](C)(C)CCCC[C@H](N)C(=O)O` [Kme3, tri-methyl-lysine] yielded a Kd of 4.44 ± 0.23 mM.

In the case of `C[C@H](N)C(=O)N[C@@H](CCCNC(=N)N(C)C)C(=O)N[C@H](C(=O)N[C@@H](CCCC[N+](C)(C)C)C(=O)N[C@@H](CCC(N)=O)C(=O)N[C@H](C(=O)N[C@@H](C)C(=O)N[C@@H](CCCNC(=N)N)C(=O)N[C@@H](CCCCN)C(=O)N[C@@H](CO)C(=O)N[C@H](C(=O)NCC(=O)NCC(=O)N[C@@H](CCCCN)C(=O)N[C@@H](C)C(=O)N1CCC[C@H]1C(=O)N[C@@H](CCCNC(=N)N)C(=O)N[C@@H](Cc1ccc(O)cc1)C(=O)O)[C@@H](C)O)[C@@H](C)O)[C@@H](C)O` [H3R2ame2K4me3], the “Dissociation constant (Kd)” value on Eaf3 CD W88A, on Eaf3 CD Y23A, on Eaf3 CD W84A and on Eaf3 CD Y81A was “N.B” in each case.

Take Eaf3 chromodomain H18A H18A: the “fold change of binding (relative to pH 6.8)” value is listed as “decreased by 1.9-fold at pH 5.2” in data set [1] (pH 5.2) and “slightly enhanced by a factor of 1.2-fold at pH 8.5” in data set [1] (pH 8.5). In addition, the “fold change of binding (H18A relative to WT)” value in data set [1] (pH 6.8) is 2.9-fold stronger binding than WT at pH 6.8.

As for Eaf3 chromodomain (Eaf3 CD), wild type, the “pKa, His18 of Eaf3 CD” value in [2] is reported as “approximately 6.8”. For the same molecule, the “fold change of binding (relative to pH 6.8)” value is given as “weakened 2.3-fold on going from pH 6.8 to 6.0” in [1] (pH 6.0-6.8) and “enhanced 2.2-fold on going from pH 6.8 to 7.5” in data set [1] (pH 6.8-7.5). Besides, in data set [1] (pH 8.5), the “fold change of binding” value is “enhanced a further 3.6-fold at pH 8.5”.

B1: Histone H3 peptide trimethylated at Lys36 (H3K36me3) (peptide)
peptide: SAPSTGGVK(me3)KPHRYKPGT
notes: histone H3; source: synthetic peptide (bought: Qiagen and SIGMA Genosys)
In data set [3], B1 displayed a Kd of 1.94 ± 0.094 mM.

AR[pT][Lys(Me3)]QTARKSTGGKAPRY [histone H3 peptide H3T3phoK4me3, titration peptide (printed in Table 1 as H3T3phoK3me3)]: in [4], the Kd is 6.52 ± 0.48 mM.

B2: Histone H3 peptide dimethylated at Lys36 (H3K36me2), 18 residues (peptide)
peptide: SAPSTGGVK(me2)KPHRYKPGT
notes: as for B1
In the case of B2, binding in data set [3] was put at a Kd of 4.41 ± 0.908 mM.

For ART[Lys(Me2)]QTARKSTGGKAPRY [histone H3 peptide H3K4me2, titration peptide], the Kd in [4] came out at 4.04 ± 0.11 mM.

B3: Eaf3 chromodomain (Eaf3 CD; essential Sas2-related acetyltransferase 1-associated factor 3) (Saccharomyces cerevisiae) (protein)
chain: T1 chain
With B3, the pKa entry in data set [5] (not stated for the pH titration, the authors state that the pH changes did not disrupt the structure) is given as “approximately 6.8”.

B4: Eaf3 CD: chromodomain (residues 1−120) of budding yeast Eaf3 (protein)
chain: T1 chain
modifications: left off: His6, end not stated, cleaved
notes: chromodomain (residues 1−120) of budding yeast Eaf3
On to B4, for which, in [6] (NMR pH titration, 25°C, overall), the “observed pKa value of His18” value is reported as “approximately 6.8”. Also, the “fraction of Eaf3 CD molecules with protonated His18” value in [6] (at pH 5.2) is on record as “almost all”. In data set [6] (at physiological pH of 6.8), the “fraction of Eaf3 CD molecules protonated at His18” value was “almost half”.

B5: Eaf3 chromodomain (residues 1-120) Y23A (domain or fragment, Saccharomyces cerevisiae, UniProt Q12432 1-120, looked up)
chain: T1 chain with Y23A
notes: Eaf3, Saccharomyces cerevisiae, chromodomain, residues 1-120; source: E. coli BL21(DE3)pLysS, purified (Ni-NTA, thrombin, Ni-NTA, Superdex75)
For B5, in data set [7], the “stoichiometry N” value came out at 2.

B6: Eaf3 chromodomain (residues 1-120) G19A (domain or fragment, Saccharomyces cerevisiae, UniProt Q12432 1-120, looked up)
chain: T1 chain with G19A
notes: as for B5
As to B6, the “stoichiometry N” value in [7] stood at 2.

B7: Eaf3 chromodomain (Eaf3 CD; essential Sas2-related acetyltransferase1-associated factor 3) (Saccharomyces cerevisiae) (protein)
chain: T1 chain
For the molecule B7, the pKa in data set [5] (the authors state that the pH changes caused no disruption of structure) is recorded as 6.47.
